The DeepSol protein solubility set

Assay: soluble on expression in E. coli; label from the status in PepcDB or PDB records

| Sequence | soluble on expression in E. coli |
| --- | --- |
| MGSDKIHHHHHHMQDNLIEIRDLRVAFNGHEVVHGISLDIRRGECLALVGESGSGKSVTAHSILRLLPPKNVSTQGSIRYDGLDLVTASDKQLRSLRGNRVAMIFQEPMSSLNPLHTVEKQIGEILVTHKGLKGKAALSRTLELLELVGIREPLLRLKAYPHQLSGGQRQRVMIAMALANEPDLLIADEPTTALDVTVQVKILELLKSLQQRLNMSLLLISHDLNLVRRIAQRVCVMREGEIVEQADCQALFDNPQHPYSRLLINAEPDGEPVPSTHSNTLLSVQDLKVWFPLGKAWFQREQQYVKAVDGVSFELLKGKTLGIVGESGSGKSTLGQAILRLVDSEGSIRFGTKELSLHSQHLMRPLRRQLQVVFQDPFGSLSPRMTVEQIIAEGLVTHKIGTPKEREQTVIRVLQEVGLDPATRHRYPHEFSGGQRQRISIARALVLEPDLILLDEPTSALDRTVQKQIVALLRDLQIRHGLTYLFISHDLAVVHALAHDLIVIKDGKVVEQGPSREIFAAPQQAYTQELLRSSGLVFA | not soluble |
| MKTIRRYDVNEDRGHTGLVEAGDFYYLNYCVGNVGQDIESQINGAFDEMERRLALVGLTLDAVVQMDCLFRDVWNIPVMEKMIKERFNGRYPARKSIQTEFAHHGGPQGLLFQVDGVAYSKHISMT | soluble |
| MSKSSYYAPHGGHPAQTELLTDRAMFTEAYAVIPKGVMRDIVTSHLPFWDNMRMWVIARPLSGFAETFSQYIVELAPNGGSDKPEQDPNAEAVLFVVEGELSLTLQGQVHAMQPGGYAFIPPGADYKVRNTTGQHTRFHWIRKHYQKVDGVPLPEAFVTNEQDIQPLVMPDTEGRWSTTRFVDMSDMRHDMHVNIVNFEPGGVIPFAETHVMEHGLYVLEGKAVYRLNQDWVEVEAGDFMWLRAFCPQACYSGGPGRFRYLLYKDVNRHMRLTLNAPHLEHHHHHH | soluble |
| MSKSNQKIASIEQLSNNEGIISALAFDQRGALKRMMAKHQTEEPTVAQIEQLKVLVAEELTQYASSILLDPEYGLPASDARNKDCGLLLAYEKTGYDVNAKGRLPDCLVEWSAKRLKEQGANAVKFLLYYDVDDAEEINIQKKAYIERIGSECVAEDIPFFLEVLTYDDNIPDNGSVEFAKVKPRKVNEAMKLFSEPRFNVDVLKVEVPVNMKYVEGFAEGEVVYTKEEAAQHFKDQDAATHLPYIYLSAGVSAELFQETLKFAHEAGAKFNGVLCGRATWSGAVQVYIEQGEDAAREWLRTTGFKNIDDLNKVLKDTATSWKQRK | soluble |
| MYFSWLFLVFFSSRSLTGTPRSIDQRQLRAELSGTGTPTAPADSPALVPNCTQTRGGEDGEGCKQPRVDIKKFRKKKGAHKPQEPETLNFKFRQNLLSLKFLKERKELLVSII | not soluble |
| MARKALIEKAKRTPKFKVRAYTRCVRCGRARSVYRFFGLCRICLRELAHKGQLPGVRKASW | soluble |
| MELRVAGFLDNSMVNGEGLRSVLFLSGCRRRCPGCQNTDMQDFKYGESVSAEEIFNRIKSNVPIIKGVTFSGGDPLEQAEGLINISKEIKKLGLNIWCYTGYTYEEILKEKDSNKLELLKYIDVLVDGEFKAELTENAPKYAGSSNQRIIRLKLEHHHHHH | not soluble |
| MSLNWMELSIVVNHEVEYDVTEILESYGSNGVVIEDSNILEEQPVDKFGEIYDLNPEDYPEKGVRLKAYFNEFTYNENLKSNINYEILSLQQIDKTIYDYQEKLIAEVDWENEWKNYFHPFRASKQFTIVPSWESYVKENDNELCIELDPGMAFGTGDHPTTSMCLKAIETFVKPTDSVIDVGTGSGILSIASHLLGVQRIKALDIDEMAVNVAKENFKKNHCDDAIEAVPGNLLKNENEKFNIVIANILAHIIEEMIEDTYNTLIEDGYFITSGIIEEKYQDIESQMKRIGFKIISVEHDNGWVCIVGQKVSEGHHHHHH | soluble |
| MVKKAAATSKQATYHSDEIEMKEEVVLNTYDECTDYVEYDDTKQFDINEYCDQIQVAMVNESDDGMTLEFDITRIEAPIANALRRVLIAEVPTMALEKIYLYQNTSVIQDEVLCHRLGLLPLRVDPRGFQFPKEKVVGINEKGVDCDEEPEGDPAKNLIFKINVSCTKNRNAVPTATDPKQLYHNSSVYSRAFEWVPIADQKTQFTEEAHPRMVSDDILVAKLRPGQEIEASCHAVKGIGRDHAKFSPVATASYRLLPTIRLNAEISGEAAERLKSVFSEGVIAIEKKGAKRIAVVKDARKDTCSRNVFRHEDLSKVVQLGKNKQHFIFSVESTGALKSSELVVEACKVMEIKCRSLRKQIEALIQ | not soluble |
| MNDALHIGLPPFLVQANNEPRVLAAPEARMGYVLELVRANIAADGGPFAAAVFERDSGLLIAAGTNRVVPGRCSAAHAEILALSLAQAKLDTHDLSADGLPACELVTSAEPCVMCFGAVIWSGVRSLVCAARSDDVEAIGFDEGPRPENWMGGLEARGITVTTGLLRDAACALLREYNACNGVIYNARCGVHK | soluble |
| MSLESAVKAESAGKSVAASLKARLEKTYSAQDLKVLSVSETPVKGIYEVVVSGRQIIYTDAEGGYMFVGELINIDTRKNLTEERAADLNKIDFASLPLDKAIKEVRGNGKLKVAVFSDPDCPFCKRLEHEFEKMTDVTVYSFMMPIAGLHPDAARKAQILWCQPDRAKAWTDWMRKGKFPVGGSICDNPVAETTSLGEQFGFNGTPTLVFPNGRTQSGYSPMPQLEEIIRKNQQEGHHHHHH | soluble |
| AEEFPVPNGFESAYREVDGVKLHYVKGGQGPLVMLVHGFGQTWYEWHQLMPELAKRFTVIAPDLPGLGQSEPPKTGYSGEQVAVYLHKLARQFSPDRPFDLVAHDIGIWNTYPMVVKNQADIARLVYMEAPIPDARIYRFPAFTAQGESLVWHFSFFAADDRLAETLIAGKERFFLEHFIKSHASNTEVFSERLLDLYARSYAKPHSLNASFEYYRALNESVRQNAELAKTRLQMPTMTLAGGGHGGMGTFQLEQMKAYAEDVEGHVLPGCGHWLPEECAAPMNRLVIDFLSRGRHHHHHH | soluble |
| MSSLPETLMNRLHDHERLTQNEGEALYDLDLFTLGREADRRRVKKHGKKVFFNSNRHINPTNICQDICKFCAFSSHRKNPNPYAMSIDEILEIAKESTALGARELHVVSAHNPNYGYQWYGEMFKTIKEALPHIHLKAMTAAEVDFLSRRFEKPYEQVLEDMLLWGVDSMPGGGAEIFDEEVRARLCGGKVSSGRWLEIHGYWHSLGKQSNATMLFGHIENRTHRIDHMLRLRELQDRYGGFNAFIPLLYQKENNFLKVERFPTGQEILKTLAISRILLDNIPHIKAYWATLGLNLAMVAQEFGADDLDGTIQKESIQSAAGSGSGHGVSKEELIFQIKDAGFIPVERDSLYNEIQIYA | not soluble |
| MCWYGDPGATYRYSGVSHQPSPWHEVLADLRTRIEAFSGHVFNAVLCNRYRSGRDSMGWHADDEPELGERPFIASLSLGAERLFRIRHRGTGRTLDVPLRDGDLLLMGGELQSHWRHCVPRTARPCGERINLTFRRVVPRSLEHHHHHH | not soluble |
| MSSIRYRRPPIIERRYERTPSYSTIPRDIHVSFYHNNYHRSKILYLNKFNAMEKLIEAAHELYPSNGVYRLFSDSTIGAQNELNDSVQVMECVQNPDHILPHLHIRLEDYRPRSISRNYHEVNVPIIRTPSQHSIHQSVRFNDNKRHHHHHHHDSIRNFVHHDTPCRNCFRIIVGSRYHCLQCPDYDICGDCEKDLVHYEHALLRIVTPRVTSIPDYVTVNAPSYIFPEHRYDIKREHYHWF | not soluble |
| VKSYKSGASAIDVIVTTPDIARINAIAAMKKGSALTTEETMQVPAAGWPVMIFSHGITSYKETVLAISGTLASQGIATISIDHPYHGARGIDFNADGVYEISATSSLSDSDPAYVNANVTSYMNLASLLTARDNVRQSEVDLLALRLSLNSVNLAGQLDATKVSFLGHSLGAITGIPVMALANSGI | not soluble |
| GMTSPSIESGARERTRRAILDAAMLVLADHPTAALGDIAAAAGVGRSTVHRYYPERTDLLRALARHVHDLSNAAIERADPTSGPVDAALRRVVESQLDLGPIVLFVYYEPSILADPELAAYFDIGDEAIVEVLNRASTERPEYPPGWARRVFWALMQAGYEAAKDGMPRHQIVDAIMTSLTSGIITLPRT | soluble |
| MAHHHHHHMQAQMMLGQALEHYAMMDFANLVLEQCWDICYDSQLTRPELAGGALPDVKAQKMDACARKCVARHFEVLTLLSATRELREKERMQGLPPGTLTSM | not soluble |
| MDYILGRYVKIARYGSGGLVGGGGKEQYVENLVLWENIIKTAYCFITPSSYTAALETANIPEKDFSNCFRFLKENFFIIPGEYNNSTENNRYSRNFLHYQSYGANPVLVQDKLKNAKVVILGCGGIGNHVSVILATSGIGEIILIDNDQIENTNLTRQVLFSEDDVGKNKTEVIKRELLKRNSEISVSEIALNINDYTDLHKVPEADIWVVSADHPFNLINWVNKYCVRANQPYINAGYVNDIAVFGPLYVPGKTGCYECQKVVADLYGSEKENIDHKIKLINSRFKPATFAPVNNVAAALCAADVIKFIGKYSEPLSLNKRIGIWSDEIKIHSQNMGRSPVCSVCGNRMLEHHHHHH | soluble |
| MAGDPMRRTLYRLMIELTNGRFTSYILRKFAQSRLSSIIIPSYAKVFQINQDEMEKGLKEYRTLHELFTRKLKEGKRSIDTDASSIVSPVDGVFADHGPIEDTKTFDIKGKRYSIVDMLGNEERATRYAGGTYMVIYLSPSHYHRIHSPLSGSVTERFVLGRKSYPVNAAGMEYGKEPLSKNYRSVTEVSSDGEHMALVKVGAMFVNSIELLHERDTVQKGEEMAYFTFGSTVVLLFEKDMIEVVQELKSGQELRLGEKIATRLAHKLEHHHHHH | not soluble |
| MSLKTLENHNRIKVTVNGREIEVYDNLTILQALLQEDIHIPHLCYDIRLERSNGNCGLCVVTLISPDGERDVKACQTPIKEGMVICTNTPKLENYRKIRLEQLLSDHNADCVAPCVMTCPANIDIQSYLRHVGNGDFEAAIRVIKERNPFPIVCGRVCPHTCESQCRRNLVDAPVAINYVKRFAADWDMARPEPWTPEKKPPTGKKIAIVGAGPSGLSAAYYSAIKGHDVTVFERQPHPGGMMRYGIPEYRLPKAILDKEIEMIKKLGVKIMTEKALGIHIRLEDLSKDFDAVYLAIGSWQATPMHIEGEKLDGVWAGINYLEQVAKNVDIPLGDNVVVIGGGNTAIDCARTALRKGAKSVKLVYRCTREEMPAAPYEVEEAIHEGVEMIFLMAPTKIIVKDGKKKLVCIRMQLGEPDRSGRRRPVPIEGSEVEIDADTIIGAIGQSTNTQFLYNDLPVKLNKWGDIEVNGKTLQTSEYNIFAGGDCVTGPATVIEGHHHHHH | soluble |
| MGHHHHHHSHMTECRKSVPCGWERVVKQRLFGKTAGRFDVYFISPQGLKFRSKSSLANYLHKNGETSLKPEDFDFTVLSKRGIKSRYKDCS | not soluble |
| MGHHHHHHSHMEPGEELEEEGSPGGREDGFTAEHLAAEAMAADMDPWLVFDARTTPATELDAWLAKYPPSQVTRYGDPGSPNSEPVGWIAVYGQGYSPNSGDVQGLQAAWEALQTSGRPITPGTLRQLAITHHVLSGKWLMHLAPGFKLDHAWAGIARAVVEGRLQVAKVSPRAKEGGRQVICVYTDDFTDRLGVLEADSAIRAAGIKCLLTYKPDVYTYLGIYRANRWHLCPTLYESRFQLGGSARGSRVLDRANNVELT | not soluble |
| MGSDKIHHHHHHMENKSAVQLYLELLKKTILFEIWLEYEPYLPASLHISKELSYEPVTVPLPLFLKQYVENHNLKIVNPNVSNNERQGGKDWPRAAHSMVGRKRMNQLQEAMETVVRENIEGDFIETGVWRGGSCIFMNGFLQANNIYYRTVWVADSFEGLPAPNLEQYPKDYGDYLHTFDYLRVSLETVQENFRKYDLLNDQVKFLKGWFKDTLPSAPVEKIAIARLDGDMYESTMDSLVNLYDKVSTGGFIIIDDYGLITCAEAVTDFRSERNIKTPMTQIDDFGIYWRKE | not soluble |
